# In publication PMC3677877 (PLoS ONE, 2013):
# T1: mature RgpB from P. gingivalis HG66 (Porphyromonas gingivalis HG66, UniProt P95493 230-736)
# T1 chain: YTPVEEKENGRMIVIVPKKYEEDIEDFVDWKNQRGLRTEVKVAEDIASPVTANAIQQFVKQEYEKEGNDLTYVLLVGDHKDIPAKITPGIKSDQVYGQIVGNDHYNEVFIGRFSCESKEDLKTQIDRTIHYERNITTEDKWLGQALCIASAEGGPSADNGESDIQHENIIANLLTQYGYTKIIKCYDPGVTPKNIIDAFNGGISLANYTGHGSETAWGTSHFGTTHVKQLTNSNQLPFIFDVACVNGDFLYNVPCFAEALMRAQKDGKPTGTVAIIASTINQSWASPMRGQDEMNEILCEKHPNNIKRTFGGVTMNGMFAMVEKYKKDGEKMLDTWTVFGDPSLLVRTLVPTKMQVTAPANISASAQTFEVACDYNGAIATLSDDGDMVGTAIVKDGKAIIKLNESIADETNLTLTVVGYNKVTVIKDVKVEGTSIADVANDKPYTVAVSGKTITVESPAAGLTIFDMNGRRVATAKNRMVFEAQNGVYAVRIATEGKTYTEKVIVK
# B1: recombinant RgpB propeptide (thrombin-cleaved) (domain or fragment)
# chain: QPAERGRNPQVRLLSAEQSMSKVQFRMDNLQFTGVQTSKGVAQVPTFTEGVNISEKGTPILPILSRSLAVSETRAMKVEVVSSKFIEKKDVLIAPSKGVISRAENPDQIPYVYGQSYNEDKFFPGEIATLSDPFILRDVRGQVVNFAPLQYNPVTKTLRIYTEIVVAVSETAEAGQNTISLVKNSTFTGFEDIYKSVFMNYEATR
# modifications: Text prints 25-222, but the reverse primer encodes FMNYEATR-stop (end at 229), and 209 aa = GSHM vector remnant + 205 residues (25-229). The GSHM remnant left after thrombin cleavage is omitted. …
# Columns and labels:
# [1] = target: rKgp: mature recombinant Kgp catalytic domain with the ABM1 motif (Gly681-Ala710) deleted (Porphyromonas gingivalis W50)
# papain = papain (UniProt P00784)
# papain, sequence (P00784 134-345): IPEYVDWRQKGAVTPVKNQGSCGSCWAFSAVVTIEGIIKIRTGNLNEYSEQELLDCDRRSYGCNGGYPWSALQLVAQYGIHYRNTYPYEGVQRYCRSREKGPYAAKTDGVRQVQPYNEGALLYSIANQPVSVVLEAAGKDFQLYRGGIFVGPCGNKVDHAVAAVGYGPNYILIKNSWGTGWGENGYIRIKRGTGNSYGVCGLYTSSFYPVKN
# caspase 3 = caspase 3 (UniProt P42574)
# caspase 3, sequence (P42574 whole entry): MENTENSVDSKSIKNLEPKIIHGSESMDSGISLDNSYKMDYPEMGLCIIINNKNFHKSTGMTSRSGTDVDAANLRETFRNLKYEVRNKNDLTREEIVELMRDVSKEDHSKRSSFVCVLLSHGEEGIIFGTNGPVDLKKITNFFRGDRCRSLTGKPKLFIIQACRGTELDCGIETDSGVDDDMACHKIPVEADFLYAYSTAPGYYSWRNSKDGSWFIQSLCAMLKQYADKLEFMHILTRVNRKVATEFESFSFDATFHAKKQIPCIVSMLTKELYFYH
# [2] = target: T1, mature RgpB from P. gingivalis HG66; test: enzyme inhibition kinetics; conditions: both partners purified
Molecule,"% proteolytic activity of Kgp (0.0075 mg/mL) with RgpB-PP at 50 mg/L, substrate GPKNA (% proteolytic activity) [1]","% proteolytic activity of papain (2.75 mg/L) with RgpB-PP at 100 mg/L, substrate BapNA (% proteolytic activity) (papain)","% proteolytic activity of caspase 3 (60 Units) with RgpB-PP at 100 mg/L, substrate Ac-DEVD-pNa (200 µM) (% proteolytic activity) (caspase 3)",Ki [2] [nM]
recombinant RgpB propeptide (thrombin-cleaved) (from UniProt P95493 25-222) (domain or fragment),118,103,133,
B1,,,,12
